Test results published in paper doi:10.1101/2021.05.26.445723 (bioRxiv, 2021).

Molecular target: GST-Sir3^SaID (S. cerevisiae, UniProt P06701 531-723)
Experiment: pull-down

GST-Sir3^SaID, sequence (P06701 531-723): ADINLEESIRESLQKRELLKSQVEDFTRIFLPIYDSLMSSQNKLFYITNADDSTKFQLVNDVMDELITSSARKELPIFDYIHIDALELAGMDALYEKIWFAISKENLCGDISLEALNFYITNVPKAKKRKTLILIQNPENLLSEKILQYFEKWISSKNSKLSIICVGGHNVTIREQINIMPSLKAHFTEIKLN

B1: Sae2^C (purified) (domain or fragment, S. cerevisiae, UniProt P46946 173-345, looked up)
chain: ENPESTSPNLYKNVKDNFLFDFNTNPLTKRAWILEDFRPNEDIAPVKRGRRKLERFYAQVGKPEDSKHRSLSVVIESQNSDYEFAFDNLRNRSKSPPGFGRLDFPSTQEGNEDKKKSQEIIRRKTKYRFLMASNNKIPPYEREYVFKREQLNQIVDDGCFFWSDKLLQIYARC
  binding result: binds
